Here are results for four substances from publication PMC7757244.

What is called Kd is the free concentration of one partner at which half of the binding sites on the other are occupied at equilibrium, for simple one-to-one binding. Low readings indicate higher affinity, high ones lower affinity. In general, koff refers to a measure of how fast the partners let go of each other. In general, kon refers to the second-order rate constant of association. A higher kon goes with fast association.

The target in this assay is Mut FcγRIIIa (human) (UniProt P08637). Kind of assay: SPR. A general note: SPR reads the build-up and loss of mass on a sensor chip optically.
Sequence of UniProt P08637 (P08637 17-254): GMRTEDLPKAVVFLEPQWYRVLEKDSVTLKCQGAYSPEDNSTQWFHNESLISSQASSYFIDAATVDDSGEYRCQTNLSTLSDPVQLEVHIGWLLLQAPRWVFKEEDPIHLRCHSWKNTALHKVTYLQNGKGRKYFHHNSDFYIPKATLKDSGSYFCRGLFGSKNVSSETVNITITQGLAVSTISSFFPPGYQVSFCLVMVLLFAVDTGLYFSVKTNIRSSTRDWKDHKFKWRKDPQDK
Expi293-Trastuzumab (antibody) returned a Kd of 1950 nM and a koff of 0.0583 s⁻¹.

The substance ExpiCHO-Rituximab (antibody) came in with a Kd of 2030 nM, an off-rate (koff) of 0.0803 s⁻¹ and a kon of 39900 M⁻¹ s⁻¹.

ExpiCHO-Trastuzumab (antibody) displayed a Kd of 2520 nM, a koff of 0.0893 s⁻¹ and a kon of 36200 M⁻¹ s⁻¹.

Substance Expi293-Rituximab (antibody) gave a Kd of 1380 nM, a koff of 0.0544 s⁻¹ and a kon of 39600 M⁻¹ s⁻¹.
